Measurements reported in US20240043528A1, “NANOBODY-OGA FUSIONS AND USES THEREOF” (President and Fellows of Harvard College, priority 2020, published 2024).

Biological target: T1, OGT with C-terminal His tag (human, UniProt O15294 1-1046, limits assumed)
T1 construct: also called OGT-His; pCMV3-OGT-His; not shown: C-terminal His tag
T1 sequence (looked up): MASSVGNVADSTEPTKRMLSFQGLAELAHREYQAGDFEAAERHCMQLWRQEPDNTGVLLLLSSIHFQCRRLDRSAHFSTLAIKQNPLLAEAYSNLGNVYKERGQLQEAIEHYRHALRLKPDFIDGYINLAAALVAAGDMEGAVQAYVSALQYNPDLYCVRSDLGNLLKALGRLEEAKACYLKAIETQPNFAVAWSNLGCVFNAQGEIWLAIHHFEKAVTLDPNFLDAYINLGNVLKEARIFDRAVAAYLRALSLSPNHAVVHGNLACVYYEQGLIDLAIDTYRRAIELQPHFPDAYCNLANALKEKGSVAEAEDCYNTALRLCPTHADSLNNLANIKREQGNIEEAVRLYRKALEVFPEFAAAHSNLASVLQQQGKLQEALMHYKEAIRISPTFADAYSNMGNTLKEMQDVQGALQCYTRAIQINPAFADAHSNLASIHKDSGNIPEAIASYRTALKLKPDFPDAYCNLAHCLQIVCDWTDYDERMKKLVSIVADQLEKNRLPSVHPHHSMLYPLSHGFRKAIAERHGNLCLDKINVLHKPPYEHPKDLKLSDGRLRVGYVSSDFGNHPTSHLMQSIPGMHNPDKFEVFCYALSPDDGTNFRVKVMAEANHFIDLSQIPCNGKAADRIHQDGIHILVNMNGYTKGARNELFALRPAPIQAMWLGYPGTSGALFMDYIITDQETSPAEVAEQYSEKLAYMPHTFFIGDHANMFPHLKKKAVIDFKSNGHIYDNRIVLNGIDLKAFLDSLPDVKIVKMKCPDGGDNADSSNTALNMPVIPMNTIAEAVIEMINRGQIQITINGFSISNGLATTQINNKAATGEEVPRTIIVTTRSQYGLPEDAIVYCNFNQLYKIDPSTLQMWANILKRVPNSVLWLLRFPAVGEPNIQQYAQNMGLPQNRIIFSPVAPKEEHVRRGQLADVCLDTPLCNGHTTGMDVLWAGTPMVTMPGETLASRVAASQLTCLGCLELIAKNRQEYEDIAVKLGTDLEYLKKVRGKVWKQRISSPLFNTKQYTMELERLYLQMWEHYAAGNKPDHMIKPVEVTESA
Experiment: co-immunoprecipitation with beads against the His tag of OGT from HEK 293T lysates, immunoblot
Procedure: Overexpressed OGT and its interacting proteins were co-immunoprecipitated by beads against His tag. Whole cell lysates and co-immunoprecipitated proteins were analyzed by immunoblotting assays using the indicated antibodies. Anti-myc and anti-HA blots detect expression of full-length OGA (fl-OGA), N-terminal fragment, and C-terminal fragment, respectively. The data are representative of two biological replicates.
For immunoprecipitation of proteins with His tag, cells were lysed in a buffer containing 50 mM Tris HCl pH 8.0, 150 mM NaCl, 1% Triton X-100, 5% glycerol, 1× protease inhibitor cocktail and 10 μM Thiamet-G on ice for 20 min. Cell lysates with equal amounts of protein were diluted with wash buffer (50 mM Tris HCl pH 8.0, 150 mM NaCl, 0.01% Tween-20) and incubated with pre-washed His-Tag Dynabeads (Invitrogen, 10103D) at room temperature for 20 min with mixing, following the manufacturer's instructions. After washed 4 times with wash buffer, the enriched proteins were eluted with elution buffer (300 mM Imidazole, 50 mM Tris HCl pH 8.0, 150 mM NaCl, 0.01% Tween-20) on a shaker for 10 min at room temperature.

B1: split OGA (N2+C3) (enzyme)
chain 1: MEQKLISEEDLAIAMVQKESQATLEERESELSSNPAASAGASLEPPAAPAPGEDNPAGAGGAAVAGAAGGARRFLCGVVEGFYGRPWVMEQRKELFRRLQKWELNTYLYAPKDDYKHRMFWREMYSVEEAEQLMTLISAAREYEIEFIYAISPGLDITFSNPKEVSTLKRKLDQVSQFGCRSFALLFDDIDHNMCAADKEVFSSFAHAQVSITNEIYQYLGEPETFLFCPTEYCGTFCYPNVSQSPYLRTVGEKLLPGIEVLWTGPKVVSKEIPVESIEEVSKIIKRAPVIWDNIHANDYDQKRLFLGPYKGRSTELIPRLKGVLTNPNCEFEANYVAIHTLATWYKSNMNGVRKDVVMTDSEDSTVSIQIKLENEGSDEDIETDVLYSPQMALKLALTEWLQEFGVPHQYSSR
chain 2: MAYPYDVPDYAAIAEKPLYTAEPVTLEDLQLLADLFYLPYEHGPKGAQMLREFQWLRANSSVVSVNCKGKDSEKIEEWRSRAAKFEEMCGLVMGMFTRLSNCANRTILYDMYSYVWDIKSIMSMVKSFVQWLGCRSHSSAQFLIGDQEPWAFRGGLAGEFQRLLPIDGANDLFFQPP
notes: Two co-expressed fragments
binding result: no binding
